Experimental data reported in article PMC6943441, “The Meta-Position of Phe^4 in Leu-Enkephalin Regulates Potency, Selectivity, Functional Activity, and Signaling Bias at the Delta and Mu Opioid Receptors” (Molecules, 2019).

Molecular target: mu opioid receptor (Homo sapiens), P35372
Assay: competition
Details: modification not given

Sequence of mu opioid receptor (Homo sapiens), P35372 (P35372 whole entry): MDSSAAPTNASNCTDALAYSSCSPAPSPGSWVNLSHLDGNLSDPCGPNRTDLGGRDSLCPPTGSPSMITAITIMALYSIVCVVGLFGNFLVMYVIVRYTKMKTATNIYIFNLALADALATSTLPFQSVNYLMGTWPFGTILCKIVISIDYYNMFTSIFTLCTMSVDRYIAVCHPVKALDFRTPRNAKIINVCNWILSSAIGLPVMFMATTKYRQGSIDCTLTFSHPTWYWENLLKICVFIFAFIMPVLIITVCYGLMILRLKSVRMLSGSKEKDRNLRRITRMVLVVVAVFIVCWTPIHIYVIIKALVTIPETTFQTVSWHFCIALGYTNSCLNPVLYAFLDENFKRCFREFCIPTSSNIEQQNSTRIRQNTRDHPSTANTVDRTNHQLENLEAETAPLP

For YAGFL [DADLE], the Ki was 1.58 nM.
